{"source": "paper PMC5072170", "tested_on": "Cc1cn([C@H]2C[C@H](O)[C@@H](COP(=O)(O)OP(=O)(O)O[C@H]3O[C@H](C)[C@@H](O)[C@H](N)[C@H]3O)O2)c(=O)[nH]c1=O", "test": "purified protein", "details": "5 mM N10-formyl-THF, 50 mM HEPPS pH 8.0, hyperbolic", "data": [{"substance": "QdtF (Providencia alcalifaciens)", "values": [{"measurement": "Km", "value": "450 ± 90", "unit": "µM"}, {"measurement": "kcat", "value": "2.43 ± 0.31", "unit": "s⁻¹"}, {"measurement": "kcat/Km", "value": 5400, "unit": "M⁻¹ s⁻¹"}]}]}
